For the assay, the target named is T1, NRAS (human, UniProt P01111 1-174, limits assumed).
T1 construct: also called Neuroblastoma-RAS; NRAS (WT)
Kind of assay: yeast display, cells sorted for binding to NRAS (WT).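 Also: Yeast-displayed monobody variants with one or two residue substitutions, monobody sequences read from cells recovered by sorting for binding to wild-type NRAS.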

B1: Mb(NRAS_24) with the FG loop of SEQ ID NO: 51 (designed binder)
chain: VSSVPTKLEVVAATPTSLLISWDAPAVTVDFYVITYGETGGYAWAYQEFKVPGSKSTATISGLSPGVDYTITVYAYQVIKSIWKYYSPISINYRT
notes: length of the loop entry not visible
Consider B1, for which the binding result is listed as “binds”.

B2: Mb(NRAS_24) with the FG loop of SEQ ID NO: 57 (designed binder)
chain: VSSVPTKLEVVAATPTSLLISWDAPAVTVDFYVITYGETGGYAWAYQEFKVPGSKSTATISGLSPGVDYTITVYAYQVISHIWKYYSPISINYRT
notes: as for B1
Turning to B2, the binding result is “binds”.

B3: Mb(NRAS_24) with the FG loop of SEQ ID NO: 63 (designed binder)
chain: VSSVPTKLEVVAATPTSLLISWDAPAVTVDFYVITYGETGGYAWAYQEFKVPGSKSTATISGLSPGVDYTITVYAYQVSGAIWKYYSPISINYRT
notes: as for B1
In the case of B3, the binding result is recorded as “binds”.

B4: Mb(NRAS_24) with the FG loop of SEQ ID NO: 55 (designed binder)
chain: VSSVPTKLEVVAATPTSLLISWDAPAVTVDFYVITYGETGGYAWAYQEFKVPGSKSTATISGLSPGVDYTITVYAYQVIRSIWKYYSPISINYRT
notes: as for B1
On to B4, for which the binding result was “binds”.

B5: Mb(NRAS_24) with the FG loop of SEQ ID NO: 52 (designed binder)
chain: VSSVPTKLEVVAATPTSLLISWDAPAVTVDFYVITYGETGGYAWAYQEFKVPGSKSTATISGLSPGVDYTITVYAYQVIKYIWKYYSPISINYRT
notes: as for B1
For B5, the binding result was “binds”.

B6: Mb(NRAS_24) with the FG loop of SEQ ID NO: 54 (designed binder)
chain: VSSVPTKLEVVAATPTSLLISWDAPAVTVDFYVITYGETGGYAWAYQEFKVPGSKSTATISGLSPGVDYTITVYAYQVIRHIWKYYSPISINYRT
notes: as for B1
For B6, the binding result is “binds”.

B7: Mb(NRAS_24) with the FG loop of SEQ ID NO: 53 (designed binder)
chain: VSSVPTKLEVVAATPTSLLISWDAPAVTVDFYVITYGETGGYAWAYQEFKVPGSKSTATISGLSPGVDYTITVYAYQVILHIWKYYSPISINYRT
notes: as for B1
Consider B7, for which the binding result was “binds”.

B8: Mb(NRAS_24) with the FG loop of SEQ ID NO: 61 (designed binder)
chain: VSSVPTKLEVVAATPTSLLISWDAPAVTVDFYVITYGETGGYAWAYQEFKVPGSKSTATISGLSPGVDYTITVYAYQVIYHIWKYYSPISINYRT
notes: as for B1
With B8, the binding result is “binds”.

B9: Mb(NRAS_24) with the FG loop of SEQ ID NO: 62 (designed binder)
chain: VSSVPTKLEVVAATPTSLLISWDAPAVTVDFYVITYGETGGYAWAYQEFKVPGSKSTATISGLSPGVDYTITVYAYQVIYYIWKYYSPISINYRT
notes: as for B1
Regarding B9, the binding result is listed as “binds”.

B10: Mb(NRAS_24) with the FG loop of SEQ ID NO: 60 (designed binder)
chain: VSSVPTKLEVVAATPTSLLISWDAPAVTVDFYVITYGETGGYAWAYQEFKVPGSKSTATISGLSPGVDYTITVYAYQVITHIWKYYSPISINYRT
notes: as for B1
Take B10: the binding result was “binds”.

B11: Mb(NRAS_24) with the FG loop of SEQ ID NO: 56 (designed binder)
chain: VSSVPTKLEVVAATPTSLLISWDAPAVTVDFYVITYGETGGYAWAYQEFKVPGSKSTATISGLSPGVDYTITVYAYQVIRYIWKYYSPISINYRT
notes: as for B1
For B11, the binding result is on record as “binds”.

B12: Mb(NRAS_24) with the FG loop of SEQ ID NO: 58 (designed binder)
chain: VSSVPTKLEVVAATPTSLLISWDAPAVTVDFYVITYGETGGYAWAYQEFKVPGSKSTATISGLSPGVDYTITVYAYQVISSIWKYYSPISINYRT
notes: as for B1
In the case of B12, the binding result is on record as “binds”.

B13: Mb(NRAS_24) with the FG loop of SEQ ID NO: 59 (designed binder)
chain: VSSVPTKLEVVAATPTSLLISWDAPAVTVDFYVITYGETGGYAWAYQEFKVPGSKSTATISGLSPGVDYTITVYAYQVISYIWKYYSPISINYRT
notes: as for B1
For B13, the binding result was “binds”.

B14: Mb(NRAS_24) with the FG loop of SEQ ID NO: 64 (designed binder)
chain: VSSVPTKLEVVAATPTSLLISWDAPAVTVDFYVITYGETGGYAWAYQEFKVPGSKSTATISGLSPGVDYTITVYAYQYEGAIWKYYSPISINYRT
notes: as for B1
B14: the binding result was “binds”.

Source of the values: patent US20260263609A1 (NEW YORK UNIVERSITY, published 2026).
